Experimental data as given in paper PMC9769707.

Biological target: T1, Dnr (Pseudomonas aeruginosa PAO1) (UniProt Q51441)
T1 sequence: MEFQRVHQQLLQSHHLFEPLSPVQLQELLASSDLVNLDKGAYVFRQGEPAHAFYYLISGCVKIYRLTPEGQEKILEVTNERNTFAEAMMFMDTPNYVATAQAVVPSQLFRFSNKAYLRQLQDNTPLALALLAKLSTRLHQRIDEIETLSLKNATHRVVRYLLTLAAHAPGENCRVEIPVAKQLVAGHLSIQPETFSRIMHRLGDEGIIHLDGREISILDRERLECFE
Assay: EMSA

**Q.** With “GGCGGCTGACTCCGATGCAATGGTGGGGGAGCAATGCATCGGGGGGATGCCCTGATCATCGCAGTCCCTTGCTGGATCACAGGCATGACAGGGAAAACGGCGCAGAACCTGTCCTTGGCGATCCCTCTGGTCCGTCACTGGCGACGAACTACAAAAGACGCTAGAACAGGTCTATGGATTTGCAAAATAAAATTTTCGTTGGACTCCC (double strand) [hcp3 promoter fragment]” as the sequence, how does the binding read?
**A.** no binding
